Measurements from paper PMC7228847 (Cell host & microbe, 2020).

B1: Recombinant human Fc-tagged SEMA6A extracellular domain (Fc fusion)
chain: GFPEDSEPISISHGNYTKQYPVFVGHKPGRNTTQRHRLDIQMIMIMNGTLYIAARDHIYTVDIDTSHTEEIYCSKKLTWKSRQADVDTCRMKGKHKDECHNFIKVLLKKNDDALFVCGTNAFNPSCRNYKMDTLEPFGDEFSGMARCPYDAKHANVALFADGKLYSATVTDFLAIDAVIYRSLGESPTLRTVKHDSKWLKEPYFVQAVDYGDYIYFFFREIAVEYNTMGKVVFPRVAQVCKNDMGGSQRVLEKQWTSFLKARLNCSVPGDSHFYFNILQAVTDVIRINGRDVVLATFSTPYNSIPGSAVCAYDMLDIASVFTGRFKEQKSPDSTWTPVPDERVPKPRPGCCAGSSSLERYATSNEFPDDTLNFIKTHPLMDEAVPSIFNRPWFLRTMVRYRLTKIAVDTAAGPYQNHTVVFLGSEKGIILKFLARIGNSGFLNDSLFLEEMSVYNSEKCSYDGVEDKRIMGMQLDRASSSLYVAFSTCVIKVPLGRCERHGKCKKTCIASRDPYCGWIKEGGACSHLSPNSRLTFEQDIERGNTDGLGDCHNSFVALNGHSSSLLPSTTTSDSTAQEGYESRGGMLDWKHLLDSPDSTDPLGAVSSHNHQDKKGVIRESYLKGHDQLVPVT
B2: Recombinant human Fc-tagged SEMA6B extracellular domain (Fc fusion)
chain: LFPEEPPPLSVAPRDYLNHYPVFVGSGPGRLTPAEGADDLNIQRVLRVNRTLFIGDRDNLYRVELEPPTSTELRYQRKLTWRSNPSDINVCRMKGKQEGECRNFVKVLLLRDESTLFVCGSNAFNPVCANYSIDTLQPVGDNISGMARCPYDPKHANVALFSDGMLFTATVTDFLAIDAVIYRSLGDRPTLRTVKHDSKWFKEPYFVHAVEWGSHVYFFFREIAMEFNYLEKVVVSRVARVCKNDVGGSPRVLEKQWTSFLKARLNCSVPGDSHFYFNVLQAVTGVVSLGGRPVVLAVFSTPSNSIPGSAVCAFDLTQVAAVFEGRFREQKSPESIWTPVPEDQVPRPRPGCCAAPGMQYNASSALPDDILNFVKTHPLMDEAVPSLGHAPWILRTLMRHQLTRVAVDVGAGPWGNQTVVFLGSEAGTVLKFLVRPNASTSGTSGLSVFLEEFETYRPDRCGRPGGGETGQRLLSLELDAASGGLLAAFPRCVVRVPVARCQQYSGCMKNCIGSQDPYCGWAPDGSCIFLSPGTRAAFEQDVSGASTSGLGDCTGLLRASLSEDRAGLVSVNLLVTSS
B3: TcsL_(1285-1804) (domain or fragment)
chain: TNVRINLDGNTRSFIVPVITTEQIRKNLSYSFYGSGGSYSLSLSPYNMNIDLNLVENDTWVIDVDNVVKNITIESDEIQKGELIENILSKLNIEDNKIILNNHTINFYGDINESNRFISLTFSILEDINIIIEIDLVSKSYKILLSGNCMKLIENSSDIQQKIDHIGFNGEHQKYIPYSYIDNETKYNGFIDYSKKEGLFTAEFSNESIIRNIYMPDSNNLFIYSSKDLKDIRIINKGDVKLLIGNYFKDDMKVSLSFTIEDTNTIKLNGVYLDENGVAQILKFMNNAKSALNTSNSLMNFLESINIKNIFYNNLDPNIEFILDTNFIISGSNSIGQFELICDKDKNIQPYFINFKIKETSYTLYVGNRQNLIVEPSYHLDDSGNISSTVINFSQKYLYGIDRYVNKVIIAPNLYTDEINITPVYKPNYICPEVIILDANYINEKINVNINDLSIRYVWDNDGSDLILIANSEEDNQPQVKIRFVNVFKSDTAADKLSFNFSDKQDVSVSKIISTFSLAA

Key:
Experiment in all cases: BLI
[1] = molecular target: TcsL (Paeniclostridium sordellii lethal toxin), recombinant His-tagged, full length (Paeniclostridium sordellii strain 6018, UniProt Q46342)
[2] = molecular target: B1
[3] = molecular target: B2

Binder | Kd [1] | binding result [2] | binding result [3]
B1 | ~40 nM | – | –
B2 | ~60 nM | – | –
B3 | – | binds | binds
